Patent US20070135335

Tested on: Beacon (recombinant, expressed as GST-Beacon in E. coli, GST tag cleaved off with thrombin)

Sequence of GST-CLK2 (recombinant human CLK2 fused to glutathione S-transferase, pGEX4T-1) (chain, as listed by the source): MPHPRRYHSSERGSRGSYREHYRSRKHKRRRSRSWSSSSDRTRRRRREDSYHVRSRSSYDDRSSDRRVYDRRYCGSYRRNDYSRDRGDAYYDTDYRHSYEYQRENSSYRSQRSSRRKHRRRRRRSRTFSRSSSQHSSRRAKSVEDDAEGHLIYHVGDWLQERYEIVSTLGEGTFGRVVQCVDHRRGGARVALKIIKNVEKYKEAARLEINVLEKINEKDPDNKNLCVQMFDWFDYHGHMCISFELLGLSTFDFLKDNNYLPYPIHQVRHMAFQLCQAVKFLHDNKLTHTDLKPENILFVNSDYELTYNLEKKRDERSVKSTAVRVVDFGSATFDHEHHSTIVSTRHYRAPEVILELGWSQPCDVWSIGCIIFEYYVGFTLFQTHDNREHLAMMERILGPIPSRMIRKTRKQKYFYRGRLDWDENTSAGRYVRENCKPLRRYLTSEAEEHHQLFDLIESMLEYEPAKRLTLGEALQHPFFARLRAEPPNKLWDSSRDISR
Sequence of GST-CLK1 (recombinant human CLK1 fused to glutathione S-transferase, pGEX4T-1) (chain, as listed by the source): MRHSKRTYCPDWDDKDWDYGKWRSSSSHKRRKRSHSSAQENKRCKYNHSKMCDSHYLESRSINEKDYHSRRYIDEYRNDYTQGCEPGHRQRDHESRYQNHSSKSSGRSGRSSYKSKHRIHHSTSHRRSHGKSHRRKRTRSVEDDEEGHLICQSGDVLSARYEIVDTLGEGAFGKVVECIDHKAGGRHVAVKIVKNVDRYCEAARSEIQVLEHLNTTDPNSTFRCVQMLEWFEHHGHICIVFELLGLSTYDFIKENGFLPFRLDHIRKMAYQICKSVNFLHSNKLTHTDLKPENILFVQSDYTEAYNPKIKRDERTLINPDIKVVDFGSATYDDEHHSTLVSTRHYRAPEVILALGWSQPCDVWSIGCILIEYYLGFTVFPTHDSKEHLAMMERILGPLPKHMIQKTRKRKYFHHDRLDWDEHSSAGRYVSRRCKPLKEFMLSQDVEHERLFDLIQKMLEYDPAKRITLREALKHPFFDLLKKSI
Sequence of GST-CLK4 (recombinant human CLK4 fused to glutathione S-transferase, pGEX4T-1) (chain, as listed by the source): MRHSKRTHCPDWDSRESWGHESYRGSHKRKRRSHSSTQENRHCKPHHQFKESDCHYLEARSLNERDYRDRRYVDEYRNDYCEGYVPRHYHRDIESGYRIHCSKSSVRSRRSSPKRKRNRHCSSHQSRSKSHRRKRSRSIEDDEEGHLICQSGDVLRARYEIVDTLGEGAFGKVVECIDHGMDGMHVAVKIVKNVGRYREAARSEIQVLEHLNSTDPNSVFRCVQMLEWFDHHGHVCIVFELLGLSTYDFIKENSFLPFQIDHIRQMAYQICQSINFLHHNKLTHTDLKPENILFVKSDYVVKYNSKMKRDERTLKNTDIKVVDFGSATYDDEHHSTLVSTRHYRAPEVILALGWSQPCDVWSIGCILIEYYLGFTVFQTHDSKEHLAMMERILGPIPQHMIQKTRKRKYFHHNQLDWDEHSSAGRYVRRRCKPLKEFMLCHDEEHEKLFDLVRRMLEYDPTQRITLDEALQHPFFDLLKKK

| Substance | phosphorylation of Beacon in kinase assay with [gamma-32P]-ATP |
| --- | --- |
| GST-CLK1 (recombinant human CLK1 fused to glutathione S-transferase, pGEX4T-1) | Beacon was not phosphorylated by any of the CLKs |
| GST-CLK2 (recombinant human CLK2 fused to glutathione S-transferase, pGEX4T-1) | Beacon was not phosphorylated by any of the CLKs |
| GST-CLK4 (recombinant human CLK4 fused to glutathione S-transferase, pGEX4T-1) | Beacon was not phosphorylated by any of the CLKs |
